Source: paper PMC7431817

Tests used:
[1] = biological target: EGFR-GFP (epidermal growth factor receptor fused to GFP) on F1-4 cells (UniProt P00533); test: flow cytometry on cells; cells treated with 5 uM erlotinib at 37°C for 1 h and labelled with TAMRA-EGF in the continued presence of the inhibitor, 1 h on ice; Hill equation fit, apparent Kd; high expresser gate
[2] = biological target: EGFR-GFP (epidermal growth factor receptor fused to GFP) on F1-4 cells (UniProt P00533); test: flow cytometry on cells; global fit of the paper's model (conformations of ECD and kinase domain, dimerization, ligand binding to monomers and dimers) to all 12 TAMRA-EGF binding data sets (untreated, erlotinib, lapatinib; three gates and all cells), 1 h on ice; K2-K9 shared; ligand constants in nM, receptor dimerization constants in number of receptors/cell
[3] = biological target: EGFR-GFP (epidermal growth factor receptor fused to GFP) on F1-4 cells (UniProt P00533); test: flow cytometry on cells; cells treated with 5 uM lapatinib at 37°C for 1 h and labelled with TAMRA-EGF in the continued presence of the inhibitor, 1 h on ice; Hill equation fit, apparent Kd; all cells
[4] = biological target: EGFR-GFP (epidermal growth factor receptor fused to GFP) on F1-4 cells (UniProt P00533); test: flow cytometry on cells; cells treated with 5 uM lapatinib at 37°C for 1 h and labelled with TAMRA-EGF in the continued presence of the inhibitor, 1 h on ice; Hill equation fit, apparent Kd; low expresser gate
[5] = biological target: EGFR-GFP (epidermal growth factor receptor fused to GFP) on F1-4 cells (UniProt P00533); test: flow cytometry on cells; cells treated with 5 uM lapatinib at 37°C for 1 h and labelled with TAMRA-EGF in the continued presence of the inhibitor, 1 h on ice; Hill equation fit, apparent Kd; high expresser gate
[6] = biological target: EGFR-GFP (epidermal growth factor receptor fused to GFP) on F1-4 cells (UniProt P00533); test: flow cytometry on cells; F1-4 cells incubated with a concentration series of EGF for 24 h on ice; Hill equation fit; the paper finds internalized EGF and questions equilibrium at this time
[7] = biological target: EGFR-GFP (epidermal growth factor receptor fused to GFP) on F1-4 cells (UniProt P00533); test: flow cytometry on cells; F1-4 cells treated with 2 uM latrunculin-B at 37°C for 10 min, then concentration series of TAMRA-EGF, 1 h on ice; Hill equation fit
[8] = biological target: EGFR-GFP (epidermal growth factor receptor fused to GFP) on F1-4 cells (UniProt P00533); test: flow cytometry on cells; two-fold dilution series of TAMRA-EGF in PBS + 1% BSA on suspended F1-4 cells, 1 h on ice, measured without washing; Hill equation fit, apparent Kd; untreated (control) cells, all cells
[9] = biological target: EGFR-GFP (epidermal growth factor receptor fused to GFP) on F1-4 cells (UniProt P00533); test: flow cytometry on cells; cells treated with 5 uM lapatinib at 37°C for 1 h and labelled with TAMRA-EGF in the continued presence of the inhibitor, 1 h on ice; Hill equation fit, apparent Kd; medium expresser gate
[10] = biological target: EGFR-GFP (epidermal growth factor receptor fused to GFP) on F1-4 cells (UniProt P00533); test: flow cytometry on cells; cells treated with 5 uM erlotinib at 37°C for 1 h and labelled with TAMRA-EGF in the continued presence of the inhibitor, 1 h on ice; Hill equation fit, apparent Kd; medium expresser gate

Kd [1]: 1.7 nM
K3, Kd of EGF binding to a monomer with extended ECD [2]: 1.3 nM
K5, Kd of binding of the first EGF to a dimer with inactive, symmetric kinase dimer [2]: 95 nM
K6, Kd of binding of the second EGF to a dimer with inactive, symmetric kinase dimer [2]: 0.45 nM
K9, Kd of binding of the second EGF to a dimer with active, asymmetric kinase dimer [2]: 2.96 nM
Kd [3]: 4.9 nM
Kd [4]: 6.3 nM
Kd [5]: 4.9 nM
Kd [6]: 5.2 nM
Kd [7]: 8.2 nM
Kd [8]: 3.4 nM
Kd [9]: 5.1 nM
Kd [10]: 1.8 nM
Substance: Tetramethylrhodamine-labeled EGF (ligand)
